Data on one protein can be found in ChEMBL document CHEMBL3769311, “The natural flavone fukugetin as a mixed-type inhibitor for human tissue kallikreins” (Bioorg Med Chem Lett, 2016).

Usually Km stands for the substrate concentration at which the rate is half of its maximum. What is called Vmax is the rate approached at saturating substrate.

Substrate in data set [1]: O=C1CC(c2ccc(O)c(O)c2)Oc2c1c(O)cc(O)c2[C@@H]1C(=O)c2c(O)cc(O)cc2O[C@H]1c1ccc(O)cc1
The following applies: Homo sapiens; 2 uM.
Description: Mixed-type inhibition of human tissue kallikrein-2 expressed in baculovirus infected insect cells using Abz-KLRSSQ-EDDnp as substrate assessed as substrate Km at 2 uM by Lineweaver-Burk plot analysis

Substrate in data set [2]: O=C1CC(c2ccc(O)c(O)c2)Oc2c1c(O)cc(O)c2[C@@H]1C(=O)c2c(O)cc(O)cc2O[C@H]1c1ccc(O)cc1
The following applies: Homo sapiens; 4 uM.
Description: Mixed-type inhibition of human tissue kallikrein-2 expressed in baculovirus infected insect cells using Abz-KLRSSQ-EDDnp as substrate assessed as substrate Km at 4 uM by Lineweaver-Burk plot analysis

Substrate in data set [3]: O=C1CC(c2ccc(O)c(O)c2)Oc2c1c(O)cc(O)c2[C@@H]1C(=O)c2c(O)cc(O)cc2O[C@H]1c1ccc(O)cc1
As to conditions: Homo sapiens; 8 uM.
Description: Mixed-type inhibition of human tissue kallikrein-2 expressed in baculovirus infected insect cells using Abz-KLRSSQ-EDDnp as substrate assessed as substrate Km at 8 uM by Lineweaver-Burk plot analysis

Substrate in data set [4]: O=C1CC(c2ccc(O)c(O)c2)Oc2c1c(O)cc(O)c2[C@@H]1C(=O)c2c(O)cc(O)cc2O[C@H]1c1ccc(O)cc1
The following applies: Homo sapiens; 10 uM.
Description: Mixed-type inhibition of human tissue kallikrein-2 expressed in baculovirus infected insect cells using Abz-KLRSSQ-EDDnp as substrate assessed as substrate Km at 10 uM by Lineweaver-Burk plot analysis

Substrate in data set [5]: O=C1CC(c2ccc(O)c(O)c2)Oc2c1c(O)cc(O)c2[C@@H]1C(=O)c2c(O)cc(O)cc2O[C@H]1c1ccc(O)cc1
The following applies: Homo sapiens; 2 uM. The source holds these as a separate data set.

Substrate in data set [6]: O=C1CC(c2ccc(O)c(O)c2)Oc2c1c(O)cc(O)c2[C@@H]1C(=O)c2c(O)cc(O)cc2O[C@H]1c1ccc(O)cc1
As to conditions: Homo sapiens; 4 uM. The source holds these as a separate data set.

Substrate in data set [7]: O=C1CC(c2ccc(O)c(O)c2)Oc2c1c(O)cc(O)c2[C@@H]1C(=O)c2c(O)cc(O)cc2O[C@H]1c1ccc(O)cc1
As to conditions: Homo sapiens; 8 uM. The source holds these as a separate data set.

Substrate in data set [8]: O=C1CC(c2ccc(O)c(O)c2)Oc2c1c(O)cc(O)c2[C@@H]1C(=O)c2c(O)cc(O)cc2O[C@H]1c1ccc(O)cc1
As to conditions: Homo sapiens; 10 uM. This is another data set of the same source.

B1: Kallikrein-2 (Homo sapiens), P20151 (protein)
chain: MWDLVLSIALSVGCTGAVPLIQSRIVGGWECEKHSQPWQVAVYSHGWAHCGGVLVHPQWVLTAAHCLKKNSQVWLGRHNLFEPEDTGQRVPVSHSFPHPLYNMSLLKHQSLRPDEDSSHDLMLLRLSEPAKITDVVKVLGLPTQEPALGTTCYASGWGSIEPEEFLRPRSLQCVSLHLLSNDMCARAYSEKVTEFMLCAGLWTGGKDTCGGDSGGPLVCNGVLQGITSWGPEPCALPEKPAVYTKVVHYRKWIKDTIAANP
For B1, the Michaelis constant (Km) in data set [1] came to 0.72 µM; in data set [2], 0.81 µM; in data set [3], 1.04 µM; in data set [4] it was 1.2 µM. Besides, the Vmax was 192 µM/s in data set [5], 144 µM/s in data set [6], 110 µM/s in data set [7] and 79 µM/s in data set [8].
